Each block holds one binder with its values, some of them ahead of it. Where no end group is shown, it is not given here.
Legend:
[1] = molecular target: TCRs of CD8+CD40Ig Tregs (CD8+CD45RClow Tregs from CD40Ig-treated long-term allograft bearing LEW.1A recipients); test: PE and APC tetramer double staining, flow cytometry, 10 µg/mL, 1 hour at 4° C.
[2] = molecular target: TCRs of naive splenic CD8+CD45RClow Tregs; test: as above
[3] = molecular target: TCRs of CD8+CD40Ig Tregs (CD8+CD45RClow Tregs from CD40Ig-treated long-term allograft bearing LEW.1A recipients); test: cell-based or functional assay
[4] = molecular target: TCRs of CD8+CD40Ig Tregs (CD8+CD45RClow Tregs from CD40Ig-treated long-term allograft bearing LEW.1A recipients); test: BV421 control tetramer staining, flow cytometry, 10 µg/mL

percent of Bu31-specific (tetramer-stained) cells among CD8+CD40Ig Tregs, graft [1]: 1.11% | percent of Bu31-specific (tetramer-stained) cells among CD8+CD40Ig Tregs, spleen [1]: 0.281% | precursor frequency (tetramer-stained cells) in naive splenic CD8+CD45RClow Tregs [2]: 0.187%
Binder: YLRYDSDVGEYR (peptide-MHC, part only; not given: MHC heavy chain and b2m, part only, also: bound in MHC class I RT1.A^a tetramer with streptavidin-PE or -APC) [MHC class I tetramer RT1.A^a/Bu31-10]

CD25 expression at the cell surface of CD8+CD40Ig Tregs after 6 days with matured syngeneic pDCs, fold vs. no peptide [3]: 1.67 fold
Binder: YLRYDSDVGEYRAVTE [peptide Bu31]

percent non-specific staining among Bu31-10-specific cells [4]: 1.6%
Binder: ILFPSSERLISNR (peptide-MHC, part only; not given: MHC heavy chain and b2m, part only, also: bound in MHC class I RT1.A^a tetramer with streptavidin-BV421) [control tetramer RT1.A^a/MTF-E]
